T1: 人TIGIT (TIGIT-Jurkat细胞表面) (human, UniProt Q495A1 22-244)
T1 construct: whole, on cells
T1 sequence (looked up): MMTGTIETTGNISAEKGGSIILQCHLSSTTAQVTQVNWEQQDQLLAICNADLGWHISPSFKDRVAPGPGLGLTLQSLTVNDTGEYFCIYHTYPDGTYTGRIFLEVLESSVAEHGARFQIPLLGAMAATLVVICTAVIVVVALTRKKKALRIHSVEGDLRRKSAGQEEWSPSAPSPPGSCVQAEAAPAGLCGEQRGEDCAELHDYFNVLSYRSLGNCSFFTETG

B1: 参照抗体Tiragolumab (antibody, V domains shown)
VH: EVQLQQSGPGLVKPSQTLSLTCAISGDSVSSNSAAWNWIRQSPSRGLEWLGKTYYRFKWYSDYAVSVKGRITINPDTSKNQFSLQLNSVTPEDTAVFYCTRESTTYDLLAGPFDYWGQGTLVTVSS
VL: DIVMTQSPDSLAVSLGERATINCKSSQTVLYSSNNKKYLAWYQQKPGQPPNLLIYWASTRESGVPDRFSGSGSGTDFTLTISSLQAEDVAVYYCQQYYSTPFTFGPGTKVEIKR
B2: 抗体h10D8OF (antibody, human IgG1, kappa, V domains shown)
VH: QVQLVESGGGVVQPGRSLRLDCKASGFTFSSYGMSWVRQAPGKGLELVATINSNGGSTYYPDSVKGRFTISRDNSKNTLFLQMNSLRAEDTAVYYCARLGTGTLGFAYWGQGTLVTVSS
VL: EIVMTQSPATLSLSPGERATLSCKASQDVKTAVSWYQQKPGQAPRLLIYWASTRATGIPARFSGSGSGTDYTLTISSLEPEDFAVYYCQQHYSTPWTFGQGTKVEIKR
notes: also called 抗TIGIT抗体
B3: 抗体h10D8OFKF (antibody, human IgG1, kappa, V domains shown)
VH: QVQLVESGGGVVQPGRSLRLDCKASGFTFSSYGMSWVRQAPGKGLELVATINSNGGSTYYPDSVKGRFTISRDNSKNTLFLQMNSLRAEDTAVYYCARLGTGTLGFAYWGQGTLVTVSS
VL: EIVMTQSPATLSLSPGERATLSCKASQDVKTAVSWYQQKPGQAPRLLIYWASTRATGIPARFSGSGSGTDYTLTISSLEPEDFAVYYCQQHYSTPWTFGQGTKVEIKR
modifications: fucosylation level about 0 (expressed in alpha-(1,6)-fucosyltransferase knockout CHO cells)
notes: also called 抗TIGIT抗体

One may read the IC50 as the concentration that gives 50% inhibition. Higher therefore signals weaker potency.

The target of the assay is T1, 人TIGIT (TIGIT-Jurkat细胞表面). As to the kind of experiment: flow cytometry; blocking of 12.5 nM biotinylated PVR-Fc binding to TIGIT-Jurkat cells. (In general: Flow cytometry measures light scatter and fluorescence of single cells or particles in a stream.)
As to B1, the IC50 was 2.82 nM.

With B2, the IC50 was 0.441 nM.

B3 came in with an IC50 of 0.742 nM. Compared with the last molecule, the IC50 is about 1.7-fold higher.

Values taken from patent CN114989300A (BIO THERA SOLUTIONS LTD, dated 2022).
